Data from the supplement of paper PMC12067230.

B1: T-19-Y; numbered along this chain (parent)
chain: EASNCFAIRHFENKFAVETLICFNLFLNSQEKHY

Variants of: B1
Assay: amyloid nucleation score relative to WT ADan (yeast Sup35 reporter selection) (log enrichment difference); higher = more amyloid nucleation
In short: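 The nucleation score equals a variant's log enrichment of output over input, less the unmutated peptide's enrichment, merged over replicates by error-weighted mean with DiMSum. The variants were single amino-acid substitutions and stop truncations of a peptide fused to the Sup35 nucleation domain, expressed in a psi-minus, pin-minus S. cerevisiae strain. After 24 h of induction in SC-URA with 2% glucose and 100 μM copper sulfate, cells grew on adenine-lacking plates for 7 d at 30 °C. Variants under 200 input reads in Illumina sequencing were excluded.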

Amyloid nucleation score: each site, then its substitutions
T19: Y -0.511
L20: A -1.66, C -0.49, D -2.35, E -3.91, F -0.103, G 0.273, H -2.5, I -0.22, K -4.53, M 1.01, N -1.24, P 0.75, Q -1.95, R -3.67, S -3.53, T -2.92, V -1.46, W -2.59, Y -2.66
I21: A -0.465, C 0.511, D -3.79, E -0.48, F 0.0204, G -0.00868, H 0.679, K -0.182, L -0.0345, M -0.308, N 0.877, P -3.66, Q 0.332, R -1.05, S 0.32, T 0.7, V -0.0338, W 0.109, Y 0.68
C22: A 0.347, D -3.23, E -2.4, F -0.753, G -1.17, H -1.92, I -0.375, K -2.31, L -0.346, N 0.532, P -3.23, Q 0.969, R -3.03, S -1.65, T -0.69, V 0.222, W -2.89, Y -2.4
F23: A 0.41, C 0.666, D 0.717, E 0.416, G 0.469, H 0.305, I -0.248, K 0.342, L 0.404, M 0.264, N -0.504, P -1.99, Q 0.146, R 0.617, V 0.2, W -0.121, Y 0.115
N24: A -1.52, C -4.06, D -3.51, E -3.7, F -3.3, G -0.57, H -3.55, I -3.74, K -3.17, L -3.39, M -3.68, P -0.19, Q -0.992, R -4.05, S -0.773, T -2.11, V -2.78, W -4.76, Y -3.1
L25: A 0.9, C 0.731, D -1.12, E -1.98, F 0.0915, G -1.88, H -2.4, I -0.254, K -2.69, M 0.178, N 0.307, P -1.7, Q 0.382, R -3.04, S -2.33, T 0.368, V -0.125, W -2.87, Y 0.539
F26: A -0.314, C 0.2, D -0.707, E 0.392, G 0.778, H 0.258, I -0.509, K -3.31, L -0.42, M -0.622, N 0.113, P -3.34, Q -0.394, R -2.51, S -0.00989, T -0.0939, V -0.146, W 0.102, Y -0.164
L27: A -0.084, C 0.66, D 0.457, E 0.567, F -0.518, G 0.726, H 0.303, I 0.00956, K -0.947, M 0.15, N 0.524, P 0.545, Q 0.391, R -1.01, S 0.669, T 0.731, V 0.187, W 0.0695, Y 0.163
N28: A 0.139, C 0.468, D -0.0589, E -0.442, F -0.101, G 0.0833, H -1.83, I -0.963, K -2.63, L -0.936, M -0.403, P 0.0596, Q -0.0342, R -2.75, S -0.365, T -0.313, V -1.04, W -1.06, Y -1.12
S29: A -0.27, C -0.0428, D 0.326, E 0.219, F -1.68, G -0.16, H -0.577, I -1.29, K 0.205, L -0.878, M -0.489, N 0.0767, P -0.168, Q 0.312, R -1.08, T 0.043, V -0.294, W -1.86, Y -1.65
Q30: A -0.161, C -0.317, D 0.207, E 0.219, F -0.531, G -0.112, H -0.33, I -0.931, K -1.41, L -0.134, M -0.23, N -0.383, P -0.153, R -0.927, S -0.0951, T -0.212, V -0.127, W -0.8, Y -0.751
E31: A -1.39, C -2.07, D -0.000529, F -5.7, G -0.564, H -1.64, I -2.59, K -1.84, L -3.31, M -3.06, N -0.844, P -0.569, Q -0.871, R -2.51, S -0.961, T -1.22, V -1.09, W -6.44, Y -2.5
K32: A 0.179, C -0.144, D 0.768, E 0.78, F -0.726, G 0.113, H 0.279, I -1.31, L -0.598, M -0.157, N 0.686, P 0.00117, Q 0.041, R -0.086, S 0.198, T 0.234, V -0.601, W -0.739, Y -0.0344
H33: A -0.505, C -1.33, D 0.264, E 0.174, F -0.205, G -0.479, I -1.01, K -0.0712, L -0.693, M -0.289, N 0.15, P -0.211, Q -0.171, R -0.172, S -0.164, T -0.406, V -0.668, W -0.788, Y -0.228
Y34: A -0.0498, C 0.316, D 0.321, E 0.297, F -0.228, G 0.194, H 0.0246, I -0.222, K 0.234, L -0.0163, M 0.0777, N -0.386, P -0.211, Q 0.196, R 0.398, S 0.193, T -0.062, V 0.031, W -0.636
